Laboratory results: publication PMC9105653, “Zinc and Copper Ions Induce Aggregation of Human β-Crystallins” (Molecules, 2022)

Target: the molecule itself
Assay: dynamic light scattering; 50 µM protein in 10 mM Hepes pH 8.0, 100 mM NaCl (buffer B), without metal ions; apparent RH compared with the RH predicted (HullRad) from face-en-face dimer models

Row | Protein | stoichiometry N
1 | human βA1-crystallin (HβA1) (natural protein, UniProt P05813-2 1-198, looked up, human beta-crystallin A1, the shorter product of the gene CRYBA1 (made with betaA3 from the same gene by leaky ribosomal scanning); printed length 198 residues; source: E. coli BL21-RIL, purified (HisTrap, SUMO protease Ulp1 cleavage, second HisTrap, Q-Sepharose)) MAQTNPTPGSLGPWKITIYDQENFQGKRMEFTSSCPNVSERSFDNVRSLKVESGAWIGYEHTSFCGQQFILERGEYPRWDAWSGSNAYHIERLMSFRPICSANHKESKMTIFEKENFIGRQWEISDDYPSLQAMGWFNNEVGSMKIQSGAWVCYQYPGYRGYQYILECDHHGGDYKHWREWGSHAQTSQIQSIRRIQQ | 2
2 | human βB2-crystallin (HβB2) (natural protein, human beta-crystallin B2; printed length 205 residues; source: E. coli BL21-RIL, purified (HisTrap, SUMO protease Ulp1 cleavage, second HisTrap, Q-Sepharose)) ASDHQTQAGKPQSLNPKIIIFEQENFQGHSHELNGPCPNLKETGVEKAGSVLVQAGPWVGYEQANCKGEQFVFEKGEYPRWDSWTSSRRTDSLSSLRPIKVDSQEHKIILYENPNFTGKKMEIIDDDVPSFHAHGYQEKVSSVRVQSGTWVGYQYPGYRGLQYLLEKGDYKDSSDFGAPHPQVQSVRRIRDMQWHQRGAFHPSN | 2
